Tests used:
[1] = target: p21 (human (endogenous in A2780)) (UniProt P38936); experiment: co-IP; endogenous proteins in crude lysates of A2780 cells, untreated or treated with 0.6 uM DAP (up to 36 h; also after control or p21 siRNA); immunoprecipitated with anti-CDK4, anti-CDK2, anti-p21 or anti-p27 antibody, immunoblotted
[2] = target: p27 (human (endogenous in A2780)) (UniProt P46527); experiment: as above
UniProt P46527, sequence (P46527 whole entry): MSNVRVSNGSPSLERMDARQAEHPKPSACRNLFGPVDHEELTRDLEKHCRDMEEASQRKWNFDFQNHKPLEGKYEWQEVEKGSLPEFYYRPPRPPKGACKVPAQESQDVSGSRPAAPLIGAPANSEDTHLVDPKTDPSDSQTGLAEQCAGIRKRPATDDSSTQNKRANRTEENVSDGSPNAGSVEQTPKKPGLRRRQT

cyclin E, sequence (P24864 whole entry): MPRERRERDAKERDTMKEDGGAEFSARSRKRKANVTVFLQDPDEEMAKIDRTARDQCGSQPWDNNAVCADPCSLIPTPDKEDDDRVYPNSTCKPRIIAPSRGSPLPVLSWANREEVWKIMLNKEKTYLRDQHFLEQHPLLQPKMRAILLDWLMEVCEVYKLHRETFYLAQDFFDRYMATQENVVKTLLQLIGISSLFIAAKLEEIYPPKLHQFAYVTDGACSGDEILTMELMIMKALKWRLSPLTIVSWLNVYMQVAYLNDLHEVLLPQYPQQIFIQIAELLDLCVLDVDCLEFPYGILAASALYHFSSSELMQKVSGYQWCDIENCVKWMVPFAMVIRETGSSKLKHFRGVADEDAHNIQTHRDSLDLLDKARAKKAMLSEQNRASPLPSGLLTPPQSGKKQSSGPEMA
UniProt P38936, sequence (P38936 whole entry): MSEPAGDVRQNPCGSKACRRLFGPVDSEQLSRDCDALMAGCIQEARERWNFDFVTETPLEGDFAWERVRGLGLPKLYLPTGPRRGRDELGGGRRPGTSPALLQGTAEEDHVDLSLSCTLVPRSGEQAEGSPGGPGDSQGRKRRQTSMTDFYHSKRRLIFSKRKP

Substance: cyclin E (from UniProt P24864 1-410) (natural protein)
- fold of cyclin E co-precipitated with p21 against that with p27 [1]: 3 fold
- percent of CDK2/cyclin E complex bound [1]: 75%
- percent of CDK2/cyclin E complex bound [2]: 25%
